± gives the uncertainty stated by the source.

A short description of this data set: amyloid nucleation score (Sup35N fusion, yeast selection) (log enrichment); library NNK1; higher = more nucleation; inactive = no reads after selection. In outline:
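The nucleation score is the DiMSum log enrichment of output over input reads, centred on the mode score of non-aggregating sequences. Only sequences with 100 or more input reads were scored, using Illumina sequencing of input and output plasmid inserts. Psi-negative yeast expressing Sup35N fused to peptides of 20 random codons were induced 24 hours with 100 μM copper sulfate and grown 7 days at 30°C on medium lacking adenine and uracil.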
GFSWSNITKCGWACGSDGMK returned an amyloid nucleation score of 0.676 ± 0.45.
As for GFTFVLLLSLGLVGWCETVK, the amyloid nucleation score is -0.511 ± 0.68.
Then GFYGRL, with -0.774 ± 0.74.
Then GFYLRYYLGISVRHYNHVIW, with 1.19 ± 0.72.
The same measure for GFYPHANLTMFRALNKCGEV: 0.501 ± 0.53.
GFYSLHTALARIPHEHAVFF gave an amyloid nucleation score of -0.018 ± 0.61.
Then GGECYLLEYLSMSGVYCFRI, with -1.25 ± 1.4.
Then GGFFKRL, with 0.161 ± 0.36.
The same measure for GGLGVDATGYHVSTEGEELE: -0.275 ± 0.43.
In the case of GGLILYKKNREFSSLQFSCV, the amyloid nucleation score is -0.523 ± 0.46.
With GGQITYPMDLKVGRLCEDAL, the amyloid nucleation score result was “inactive”.
Then GGSRTIVP, with 0.411 ± 0.48; and GGTCVRQFMVLDTHSHADEC, with 0.66 ± 0.56.
Then GGYGCDGCLSNCMRLNGVWV, with “inactive”.
The same measure for GGYVIF: 0.212 ± 0.56; for GHDVWKANSLTRVKLREYYG: 0.546 ± 0.35.
As to GHHVRLLFLCVHTISYMESR, the amyloid nucleation score worked out at 0.582 ± 0.9.
Then GHRVAGCFSMSGVG, with 1.25 ± 0.44.
In turn, GHTLRDVWASVEVRSNVDLD came in with an amyloid nucleation score of 0.54 ± 0.82.
The same measure for GHYRFVSFRFSWAEGAQLRG: 1.68 ± 0.25.
The same measure for GICCYNFGRCKMRASPGLCG: -0.999 ± 1.3; for GIFDLLYWLRELSLRKA: 1.14 ± 0.39; for GIGFFRCCLYRMFRYTRLSH: 0.365 ± 0.23.
Then GIIFGMKVGWK, with 0.385 ± 0.31; and GILKCAYKT, with 0.664 ± 0.66.
As for GIPYSVDGYVLVDVSITTIA, the amyloid nucleation score result was “inactive”.
Then GISNSMVRHYLCTTFIYKDA, with 3.51 ± 0.066; and GIVHAPCDFHTSSFWW, with -0.147 ± 0.84.
The same measure for GIWVGHESVVIIVDMLYMLL: 5.493 ± 0.046; for GKCLIMKQRLALKSFFNFQC: “inactive”.
In the case of GKEYYAIPMKNDGIARVNLR, the amyloid nucleation score came out at 0.875 ± 0.28.
The same measure for GKFVFWWVRSVYDQMAVPGM: -0.546 ± 1.1; for GKLSSLLMFCRNSLFVGFLG: -0.086 ± 0.35.
Then GKSTCFSMKQECLAEREEEG, with 0.257 ± 0.81; and GKYKI, with -0.476 ± 0.63.
The same measure for GLAASHSTSCSSYMISCWSR: -0.055 ± 0.55.
For GLCGVILCELISNVREGKSK, the amyloid nucleation score is 4.97 ± 0.084.
The same measure for GLCTTCF: 0.126 ± 0.64; for GLECD: 0.469 ± 0.43.
The same measure for GLHREATSYLNRLFRINSG: -0.48 ± 0.56; for GLKLKIREYSAFLCR: -0.027 ± 0.36.
As for GLLFVKGTVDRQAWSGFEAH, the amyloid nucleation score was -0.796 ± 1.2.
As to GLLNR, the amyloid nucleation score is 0.435 ± 0.19.
The same measure for GLLTMIPKDYNCRISYLVHT: 0.015 ± 0.64; for GLQKSVEGNYMTFLSFSLAM: 5.03 ± 0.052.
Turning to GLVFTLWSASRCFFLRKKLW, the amyloid nucleation score was -0.083 ± 0.83.
Then GLVHEAHLDANKFFH, with -0.139 ± 0.71; and GLVHYMLLDPLAVNLSGCND, with -0.301 ± 0.3; and GLVNFTVVLTFV, with 2.82 ± 0.3.
The same measure for GLVSRIAGLIHEIDGRFWMQ: “inactive”.
GLWIRFIAVTSSSVEIRANS showed an amyloid nucleation score of -0.776 ± 0.62.
For the substance GLYPKYNVGLNN, the amyloid nucleation score was -0.376 ± 0.56.
GMARHEMRGGMHSTLLRLTA: the amyloid nucleation score turned out to be 0.735 ± 0.91.
Then GMDTGNITAQSMAGLPRRAS, with -0.299 ± 0.49; and GMDTYLMETLCSTVNLRCHA, with -0.604 ± 1; and GMFNLLH, with “inactive”.
The same measure for GMSGGWPIYKLGSS: 1.05 ± 0.25; for GMSSRMPQLNSWEPRGGDSG: -0.144 ± 0.83; for GMSVNVWMYSSLGVFCLIYV: -0.107 ± 0.2.
The same measure for GMVLEWWIFMFGVPFSSDRA: -0.122 ± 0.74; for GNCGET: 0.311 ± 0.41; for GNCKGKRPSRGGRCSGQ: 1.2 ± 0.58.
In turn, GNDGENLMSWTIVWNFIVG had an amyloid nucleation score of 4.33 ± 0.062.
Then GNDIEAIKHSGLLLSSWTMG, with -0.253 ± 1.2; and GNFGWHSLSYRDNYICSWAL, with 4.43 ± 0.068; and GNFLFCTVDRHLTGSCS, with 0.589 ± 0.47.
Regarding GNGVLAVTVSFAGTSLSLRF, the amyloid nucleation score is -0.047 ± 1.4.
Regarding GNLGI, the amyloid nucleation score is -0.31 ± 0.59.
The same measure for GNLLVMVGNMRSIDKC: 0.326 ± 0.3; for GNNFFIIVAVLTQKNSAVRV: 1.19 ± 0.22.
Then GNNGVEKPKNHISGELFGTN, with -0.138 ± 0.35; and GNRSSS, with “inactive”; and GNTVQLGRAGRFHVYDLRGV, with -0.357 ± 0.6.
Then GPCGTLSI, with -0.541 ± 0.84; and GPIRDKSELAYMLPFEVMYT, with 0.565 ± 0.67.
On to GPLFYNTM, for which the amyloid nucleation score stood at 0.159 ± 1.2.
The same measure for GPLKPFNASLVGTGAVLHGE: 0.034 ± 0.52.
Then GPLSKGIFDRFMDPHRYFKY, with -0.024 ± 0.61; and GPPLWADNKVVLIR, with -0.878 ± 0.94; and GQDDYLWRRSGLDHNHSSSS, with -0.568 ± 0.37.
GQGALDYF: the amyloid nucleation score entry was “inactive”.
The same measure for GQGALRVDCLVHRQVVSVVL: 0.176 ± 0.62.
Then GQKYHINVRERLNNLFGDCV, with 0.537 ± 0.35; and GQSKLVLHFAILTVVAWPFD, with 0.385 ± 0.51; and GRAWCFY, with 0.15 ± 0.33.
The same measure for GRFRLVMVFCAGNGNAGGER: 1.52 ± 0.52; for GRIVVTSQFMMIGRWGSPPP: 3.29 ± 0.1; for GRLCCRPVWYTISCKLWVNE: 1.04 ± 0.49.
GRLSYIIRSYSLIRV: the amyloid nucleation score is -1.21 ± 0.5.
The same measure for GRLVVIAYQMQSCDSTMD: -0.115 ± 0.42; for GRMEGTGNYMVYKDQEGVNG: “inactive”; for GRMGVSSWAGSQRVLIGENL: 1.47 ± 0.3.
GRRTAI gave an amyloid nucleation score of -0.069 ± 0.66.
The same measure for GRSFGQSGRISRAGNVGIIC: -0.266 ± 0.38; for GRTSCLKRGISKEASLTGS: 1.25 ± 0.53.
Then GRTYDDYGHVIYRSWLPSLH, with -0.274 ± 1.4; and GRVLYKSCALNNFSIMQVLC, with 4.61 ± 0.1.
Then GRYVSSWFWFRFMQVQANTN, with 0.248 ± 0.31.
In turn, GSFFTKDSDTP had an amyloid nucleation score of 0.373 ± 0.46.
Then GSGSYRGTRLECLCFW, with 0.025 ± 1.1.
Then GSKTRAKLSLGCPKFLDAKG, with 0.457 ± 0.73.
For the substance GSLFWEVMKVMADGMCDVSL, the amyloid nucleation score was 0.59 ± 0.54.
Then GSNIVSEYERLGRIMSV, with -0.509 ± 1.2; and GSWYHDRVSLCFFIFDCG, with 4.82 ± 0.076.
The same measure for GTATLSHTCKHTPLRDTRLV: -0.16 ± 0.32; for GTDPGY: -0.706 ± 0.6; for GTDVQEWLAYCCAIIYAF: 0.332 ± 0.72.
For the substance GTDYVEGCCSLNFRCCCVNG, the amyloid nucleation score came to 5.117 ± 0.05.
The same measure for GTGLSENRLSKYCWALLWSY: “inactive”; for GTIVEWAT: “inactive”; for GTLPLKDKGPYRDL: -1.08 ± 1.4.
Then GTLRHDVMRQLTFLCYFINL, with 0.047 ± 0.72; and GTMKWALYSDYLSSTFTIYH, with 0.137 ± 0.26.
Then GTNYYSSGML, with 0.114 ± 0.35; and GTQMVLFDY, with 1.12 ± 0.58; and GTSRPVDWGLRRLS, with 1.37 ± 0.62.
Turning to GTTDIFFLLILFFQVVN, the amyloid nucleation score was 1.14 ± 0.73.
For the substance GVDKASYPHSFGEQWLSLSL, the amyloid nucleation score stood at 0.844 ± 0.97.
Then GVKLYDFVNRCCVMNLLAVK, with 0.428 ± 0.47; and GVMPNCKKNLHEPALERFNT, with -0.413 ± 0.61.
The same measure for GVNFFGCHCVHN: -0.113 ± 0.41.
Then GVQAVNVEVVNEVCLVKEAT, with -0.153 ± 0.46; and GVRGVSKMECKYQKFIGLTG, with 1.78 ± 0.61; and GVRVCSMPFAALLAFLLYFS, with -1.09 ± 0.76.
In turn, GVSMGKESMIV came in with an amyloid nucleation score of -0.671 ± 0.72.
The same measure for GVSMNSFLICDFDIWQIKTR: -0.162 ± 0.22; for GVTVKGASS: -0.734 ± 0.66; for GVTWLSEISV: 0.885 ± 0.73.
The same measure for GVWYCYLGVN: -0.431 ± 1.4; for GWHTQVMVVTSVSMLGVWT: 0.487 ± 0.24.
The same measure for GWLLYDSPSRFTYC: -0.531 ± 0.37; for GWSNNCAFNLQFGISKKN: 1.54 ± 0.47.
In turn, GWTLPNRRLWHFFMTIT displayed an amyloid nucleation score of 0.654 ± 0.45.
Then GYFIVALRFSSLVEVNATSC, with 0.658 ± 0.77; and GYGLSAL, with 1.08 ± 0.73.
Then GYLIYSWVLVNWNSGLEINK, with 2.62 ± 0.17.
Then GYMCIVLIRG, with 1.12 ± 0.71.
In turn, GYMFPVFSMIGFLNTNVWSK registered an amyloid nucleation score of 3.27 ± 0.15.
The same measure for GYRGLYY: 1.38 ± 0.6; for GYRTLLS: 0.372 ± 1.4.

(Values after the supplement of paper PMC12042874.)
